Positions count from the first letter of the chain named. Where “and” joins values, the source holds several entries; their conditions need not be identical. Equal entries are not always repeated.
Key:
Conditions in all cases: protein: recombinant; tags: N-terminal His tag (pETG10a); label: 3'-Cy5; single strand, 12 nt
[1] = target: T1, IFIT5 K150M (UniProt Q13325 1-482, K150M); assay: MST; apparent; 1 mM Mg2+; MST: PBS, 5% glycerol, 0.5 mM TCEP, 0.05% Tween20, +/-1 mM MgCl2 (K150M always with 1 mM MgCl2), 10 nM Cy5-RNA, 22 C, 10 min incubation; pH not stated
T1 sequence: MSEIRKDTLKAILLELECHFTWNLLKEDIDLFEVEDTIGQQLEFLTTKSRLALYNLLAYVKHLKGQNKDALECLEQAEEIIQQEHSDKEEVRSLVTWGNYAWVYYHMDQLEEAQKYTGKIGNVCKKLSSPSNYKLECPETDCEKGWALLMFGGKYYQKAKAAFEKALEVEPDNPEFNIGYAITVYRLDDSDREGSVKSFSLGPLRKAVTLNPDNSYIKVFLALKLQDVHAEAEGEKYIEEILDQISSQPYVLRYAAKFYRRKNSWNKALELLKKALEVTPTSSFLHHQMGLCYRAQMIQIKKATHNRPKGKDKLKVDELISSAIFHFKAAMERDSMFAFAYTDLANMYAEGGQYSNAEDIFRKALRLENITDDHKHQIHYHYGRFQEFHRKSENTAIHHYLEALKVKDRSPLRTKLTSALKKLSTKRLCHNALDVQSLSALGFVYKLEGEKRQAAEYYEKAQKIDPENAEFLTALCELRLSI

[2] = target: T2, IFIT5 WT (UniProt Q13325 1-482); assay: MST; apparent; replicates with and without 1 mM Mg2+ pooled; MST: PBS, 5% glycerol, 0.5 mM TCEP, 0.05% Tween20, +/-1 mM MgCl2 (K150M always with 1 mM MgCl2), 10 nM Cy5-RNA, 22 C, 10 min incubation; pH not stated
T2 sequence: T1 sequence with M150K

[3] = target: T3, IFIT5 Q41E/K150M/R253M (UniProt Q13325 1-482, Q41E;K150M;R253M); assay: as above
T3 sequence: T1 sequence with Q41E, R253M

[4] = target: T2, IFIT5 WT; assay: MST; apparent, single replicate; 1 mM Mg2+ (assignment by word order); MST: PBS, 5% glycerol, 0.5 mM TCEP, 0.05% Tween20, +/-1 mM MgCl2 (K150M always with 1 mM MgCl2), 10 nM Cy5-RNA, 22 C, 10 min incubation; pH not stated
[5] = target: T3, IFIT5 Q41E/K150M/R253M; assay: as above
[6] = target: T2, IFIT5 WT; assay: MST; apparent, single replicate; no Mg2+ (assignment by word order); MST: PBS, 5% glycerol, 0.5 mM TCEP, 0.05% Tween20, +/-1 mM MgCl2 (K150M always with 1 mM MgCl2), 10 nM Cy5-RNA, 22 C, 10 min incubation; pH not stated
[7] = target: T3, IFIT5 Q41E/K150M/R253M; assay: as above

B1: 5'-ppp-AAAAAGGAAGGU-Cy5 (ssRNA)
RNA: AAAAAGGAAGGU
modifications: 5'-triphosphate
B1 was tested. Which Kd [1] did it give?
Its Kd is 204 nM.

What about the Kd [2] of the same binder?
Its Kd is 13.4 nM.

And the Kd [3]?
The Kd was 1980 nM.

What about the Kd [4] of the same binder?
The Kd was 12.7 nM and 13.7 nM and 23 nM.

What about the Kd [5] of the same binder?
Its Kd is 2340 nM.

What about the Kd [6] of the same binder?
Its Kd is 8.87 nM.

And the Kd [7]?
Its Kd is 1700 nM.

Source: article PMC9677429, “The Role of Electrostatic Interactions in IFIT5-RNA Complexes Predicted by the UBDB+EPMM Method”
